Test results from patent US20230192789A1, “STRUCTURALLY-STABILIZED AND HDMX-SELECTIVE P53 PEPTIDES AND USES THEREOF” (Dana-Farber Cancer Institute, Inc., priority 2020, published 2023).
Bridges are numbered along the chain shown (N, C = ends). Where no end group is shown, it is not given here. [ ]: non-standard residue; d: D form. The star is where a group is joined. Biotin = O=C1N[C@H]2[C@H](CS[C@H]2CCCCC(=O)*)N1; R8 = C=CCCCCCC[C@@](C)(N)C(=O)O; Cba = N[C@@H](CC1CCC1)C(=O)O; S5 = C=CCCC[C@](C)(N)C(=O)O

Target: T1, recombinant HDMX (amino acids 1-490 of SEQ ID NO:104) (Homo sapiens, UniProt O15151)
T1 construct: thioredoxin (N, cleaved yes); S tag (N, cleaved yes); hexahistidine (N, cleaved yes); made in house; host or cells: E. coli (inferred: pET32-LIC vector, handled as described for HDM2 in BL21(DE3))
T1 sequence (O15151 1-490): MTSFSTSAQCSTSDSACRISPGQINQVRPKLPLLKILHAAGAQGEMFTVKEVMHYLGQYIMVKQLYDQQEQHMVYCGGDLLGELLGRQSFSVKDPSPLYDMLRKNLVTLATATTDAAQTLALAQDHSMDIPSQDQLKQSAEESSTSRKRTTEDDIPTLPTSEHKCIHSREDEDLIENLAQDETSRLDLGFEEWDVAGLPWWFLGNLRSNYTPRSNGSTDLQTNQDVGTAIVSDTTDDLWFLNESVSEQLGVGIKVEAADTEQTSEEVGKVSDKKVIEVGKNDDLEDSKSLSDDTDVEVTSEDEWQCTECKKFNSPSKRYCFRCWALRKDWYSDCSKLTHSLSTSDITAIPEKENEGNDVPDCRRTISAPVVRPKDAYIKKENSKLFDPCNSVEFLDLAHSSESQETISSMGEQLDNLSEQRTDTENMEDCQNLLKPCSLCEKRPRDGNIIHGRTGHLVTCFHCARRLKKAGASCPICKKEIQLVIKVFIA
Assay: Competitive streptavidin pull-down of biotinylated peptides with 1:1 recombinant HDM2/HDMX mixture, HDMX western
Type: binding
Details: biotinylated stapled peptide, 1:1 mixture of recombinant HDM2 and HDMX

Row | Substance | HDMX versus HDM2 binding selectivity | further results
1 | ATSP-7041 B26C (Biotin-LTF[R8]EYWAQC[S5]SAA-NH2; staple 4-11; SMILES CC(C)C[C@H](NC(=O)CCCC[C@@H]1SC[C@@H]2NC(=O)N[C@@H]21)C(=O)N[C@H](C(=O)N[C@@H](Cc1ccccc1)C(=O)N[C@]1(C)CCCCCCC=CCCC[C@@](C)(C(=O)N[C@@H](CO)C(=O)N[C@@H](C)C(=O)N[C@@H](C)C(N)=O)NC(=O)[C@H](CS)NC(=O)[C@H](CCC(N)=O)NC(=O)[C@H](C)NC(=O)[C@H](Cc2c[nH]c3ccccc23)NC(=O)[C@H](Cc2ccc(O)cc2)NC(=O)[C@H](CCC(=O)O)NC1=O)[C@@H](C)O) | HDMX selectivity over HDM2 | –
2 | ATSP-7041 B26D (Biotin-LTF[R8]EYWAQD[S5]SAA-NH2; staple 4-11; SMILES CC(C)C[C@H](NC(=O)CCCC[C@@H]1SC[C@@H]2NC(=O)N[C@@H]21)C(=O)N[C@H](C(=O)N[C@@H](Cc1ccccc1)C(=O)N[C@]1(C)CCCCCCC=CCCC[C@@](C)(C(=O)N[C@@H](CO)C(=O)N[C@@H](C)C(=O)N[C@@H](C)C(N)=O)NC(=O)[C@H](CC(=O)O)NC(=O)[C@H](CCC(N)=O)NC(=O)[C@H](C)NC(=O)[C@H](Cc2c[nH]c3ccccc23)NC(=O)[C@H](Cc2ccc(O)cc2)NC(=O)[C@H](CCC(=O)O)NC1=O)[C@@H](C)O) | HDMX selectivity over HDM2 | –
3 | ATSP-7041 B26G (Biotin-LTF[R8]EYWAQG[S5]SAA-NH2; staple 4-11; SMILES CC(C)C[C@H](NC(=O)CCCC[C@@H]1SC[C@@H]2NC(=O)N[C@@H]21)C(=O)N[C@H](C(=O)N[C@@H](Cc1ccccc1)C(=O)N[C@]1(C)CCCCCCC=CCCC[C@@](C)(C(=O)N[C@@H](CO)C(=O)N[C@@H](C)C(=O)N[C@@H](C)C(N)=O)NC(=O)CNC(=O)[C@H](CCC(N)=O)NC(=O)[C@H](C)NC(=O)[C@H](Cc2c[nH]c3ccccc23)NC(=O)[C@H](Cc2ccc(O)cc2)NC(=O)[C@H](CCC(=O)O)NC1=O)[C@@H](C)O) | HDMX selectivity over HDM2 | HDMX versus HDM2 binding selectivity (listed as SEQ ID NO:61): selectivity to HDMX
4 | ATSP-7041 B26K (Biotin-LTF[R8]EYWAQK[S5]SAA-NH2; staple 4-11; SMILES CC(C)C[C@H](NC(=O)CCCC[C@@H]1SC[C@@H]2NC(=O)N[C@@H]21)C(=O)N[C@H](C(=O)N[C@@H](Cc1ccccc1)C(=O)N[C@]1(C)CCCCCCC=CCCC[C@@](C)(C(=O)N[C@@H](CO)C(=O)N[C@@H](C)C(=O)N[C@@H](C)C(N)=O)NC(=O)[C@H](CCCCN)NC(=O)[C@H](CCC(N)=O)NC(=O)[C@H](C)NC(=O)[C@H](Cc2c[nH]c3ccccc23)NC(=O)[C@H](Cc2ccc(O)cc2)NC(=O)[C@H](CCC(=O)O)NC1=O)[C@@H](C)O) | HDMX selectivity over HDM2 | HDMX versus HDM2 binding selectivity (listed as SEQ ID NO:64): selectivity to HDMX
5 | ATSP-7041 B26N (Biotin-LTF[R8]EYWAQN[S5]SAA-NH2; staple 4-11; SMILES CC(C)C[C@H](NC(=O)CCCC[C@@H]1SC[C@@H]2NC(=O)N[C@@H]21)C(=O)N[C@H](C(=O)N[C@@H](Cc1ccccc1)C(=O)N[C@]1(C)CCCCCCC=CCCC[C@@](C)(C(=O)N[C@@H](CO)C(=O)N[C@@H](C)C(=O)N[C@@H](C)C(N)=O)NC(=O)[C@H](CC(N)=O)NC(=O)[C@H](CCC(N)=O)NC(=O)[C@H](C)NC(=O)[C@H](Cc2c[nH]c3ccccc23)NC(=O)[C@H](Cc2ccc(O)cc2)NC(=O)[C@H](CCC(=O)O)NC1=O)[C@@H](C)O) | HDMX selectivity over HDM2 | –
6 | ATSP-7041 B26P (Biotin-LTF[R8]EYWAQP[S5]SAA-NH2; staple 4-11; SMILES CC(C)C[C@H](NC(=O)CCCC[C@@H]1SC[C@@H]2NC(=O)N[C@@H]21)C(=O)N[C@H](C(=O)N[C@@H](Cc1ccccc1)C(=O)N[C@]1(C)CCCCCCC=CCCC[C@@](C)(C(=O)N[C@@H](CO)C(=O)N[C@@H](C)C(=O)N[C@@H](C)C(N)=O)NC(=O)[C@@H]2CCCN2C(=O)[C@H](CCC(N)=O)NC(=O)[C@H](C)NC(=O)[C@H](Cc2c[nH]c3ccccc23)NC(=O)[C@H](Cc2ccc(O)cc2)NC(=O)[C@H](CCC(=O)O)NC1=O)[C@@H](C)O) | HDMX selectivity over HDM2 | –
7 | ATSP-7041 B26Q (Biotin-LTF[R8]EYWAQQ[S5]SAA-NH2; staple 4-11; SMILES CC(C)C[C@H](NC(=O)CCCC[C@@H]1SC[C@@H]2NC(=O)N[C@@H]21)C(=O)N[C@H](C(=O)N[C@@H](Cc1ccccc1)C(=O)N[C@]1(C)CCCCCCC=CCCC[C@@](C)(C(=O)N[C@@H](CO)C(=O)N[C@@H](C)C(=O)N[C@@H](C)C(N)=O)NC(=O)[C@H](CCC(N)=O)NC(=O)[C@H](CCC(N)=O)NC(=O)[C@H](C)NC(=O)[C@H](Cc2c[nH]c3ccccc23)NC(=O)[C@H](Cc2ccc(O)cc2)NC(=O)[C@H](CCC(=O)O)NC1=O)[C@@H](C)O) | HDMX selectivity over HDM2 | –
8 | ATSP-7041 B26S (Biotin-LTF[R8]EYWAQS[S5]SAA-NH2; staple 4-11; SMILES CC(C)C[C@H](NC(=O)CCCC[C@@H]1SC[C@@H]2NC(=O)N[C@@H]21)C(=O)N[C@H](C(=O)N[C@@H](Cc1ccccc1)C(=O)N[C@]1(C)CCCCCCC=CCCC[C@@](C)(C(=O)N[C@@H](CO)C(=O)N[C@@H](C)C(=O)N[C@@H](C)C(N)=O)NC(=O)[C@H](CO)NC(=O)[C@H](CCC(N)=O)NC(=O)[C@H](C)NC(=O)[C@H](Cc2c[nH]c3ccccc23)NC(=O)[C@H](Cc2ccc(O)cc2)NC(=O)[C@H](CCC(=O)O)NC1=O)[C@@H](C)O) | HDMX selectivity over HDM2 | –
9 | ATSP-7041 B26T (Biotin-LTF[R8]EYWAQT[S5]SAA-NH2; staple 4-11; SMILES CC(C)C[C@H](NC(=O)CCCC[C@@H]1SC[C@@H]2NC(=O)N[C@@H]21)C(=O)N[C@H](C(=O)N[C@@H](Cc1ccccc1)C(=O)N[C@]1(C)CCCCCCC=CCCC[C@@](C)(C(=O)N[C@@H](CO)C(=O)N[C@@H](C)C(=O)N[C@@H](C)C(N)=O)NC(=O)[C@H]([C@@H](C)O)NC(=O)[C@H](CCC(N)=O)NC(=O)[C@H](C)NC(=O)[C@H](Cc2c[nH]c3ccccc23)NC(=O)[C@H](Cc2ccc(O)cc2)NC(=O)[C@H](CCC(=O)O)NC1=O)[C@@H](C)O) | HDMX selectivity over HDM2 | –
10 | ATSP-7041 B26V (Biotin-LTF[R8]EYWAQV[S5]SAA-NH2; staple 4-11; SMILES CC(C)C[C@H](NC(=O)CCCC[C@@H]1SC[C@@H]2NC(=O)N[C@@H]21)C(=O)N[C@H](C(=O)N[C@@H](Cc1ccccc1)C(=O)N[C@]1(C)CCCCCCC=CCCC[C@@](C)(C(=O)N[C@@H](CO)C(=O)N[C@@H](C)C(=O)N[C@@H](C)C(N)=O)NC(=O)[C@H](C(C)C)NC(=O)[C@H](CCC(N)=O)NC(=O)[C@H](C)NC(=O)[C@H](Cc2c[nH]c3ccccc23)NC(=O)[C@H](Cc2ccc(O)cc2)NC(=O)[C@H](CCC(=O)O)NC1=O)[C@@H](C)O) | HDMX selectivity over HDM2 | –
11 | ATSP-7041 B26W (Biotin-LTF[R8]EYWAQW[S5]SAA-NH2; staple 4-11; SMILES CC(C)C[C@H](NC(=O)CCCC[C@@H]1SC[C@@H]2NC(=O)N[C@@H]21)C(=O)N[C@H](C(=O)N[C@@H](Cc1ccccc1)C(=O)N[C@]1(C)CCCCCCC=CCCC[C@@](C)(C(=O)N[C@@H](CO)C(=O)N[C@@H](C)C(=O)N[C@@H](C)C(N)=O)NC(=O)[C@H](Cc2c[nH]c3ccccc23)NC(=O)[C@H](CCC(N)=O)NC(=O)[C@H](C)NC(=O)[C@H](Cc2c[nH]c3ccccc23)NC(=O)[C@H](Cc2ccc(O)cc2)NC(=O)[C@H](CCC(=O)O)NC1=O)[C@@H](C)O) | HDMX selectivity over HDM2 | –
12 | ATSP-7041 B26Y (Biotin-LTF[R8]EYWAQY[S5]SAA-NH2; staple 4-11; SMILES CC(C)C[C@H](NC(=O)CCCC[C@@H]1SC[C@@H]2NC(=O)N[C@@H]21)C(=O)N[C@H](C(=O)N[C@@H](Cc1ccccc1)C(=O)N[C@]1(C)CCCCCCC=CCCC[C@@](C)(C(=O)N[C@@H](CO)C(=O)N[C@@H](C)C(=O)N[C@@H](C)C(N)=O)NC(=O)[C@H](Cc2ccc(O)cc2)NC(=O)[C@H](CCC(N)=O)NC(=O)[C@H](C)NC(=O)[C@H](Cc2c[nH]c3ccccc23)NC(=O)[C@H](Cc2ccc(O)cc2)NC(=O)[C@H](CCC(=O)O)NC1=O)[C@@H](C)O) | HDMX selectivity over HDM2 | –
13 | LTF8EYWAQBXAAA (Biotin-LTF[R8]EYWAQ[Cba][S5]AAA-NH2; staple 4-11) [ATSP-7041 S28A] | restored dual HDM2/HDMX binding selectivity | HDMX versus HDM2 binding selectivity (listed as SEQ ID NO:79): dual-selectivity to HDMX and HDM2
14 | LTF8EYWAQBXSAA [ATSP-7041, reference compound] | dual-HDM2/HDMX targeting | –
15 | LTF8EYWEQBXEAA (LTF[R8]EYWEQ[Cba][S5]EAA-NH2; staple 4-11; not fully specified (N-terminus); printed as LTF8EYWEQBXEAA) [ATSP-7041 A24E/S28E] | restored dual HDM2/HDMX binding selectivity | HDMX versus HDM2 binding selectivity (listed as SEQ ID NO:81): dual-selectivity to HDMX and HDM2
